Test results as given in patent WO2006046344A1 (dated 2006).

B1: boPrP-20 (scFv, V domains shown)
VH: QVQLVQSGGGLVQPGRSLRLSCAASGFTFDDYAMHWVRQAPGKGLEWVSGISWNSGSIGYADSVKGRFTISRDNAKNSLYLQMNSLRAEDTALYYCAKQGDEAAAGTGFDYWGQGTLVTVSS
VL: QSVLTQPPSASAAPGQGVTISCSGSSSNIGTNTVAWYQHLPETAPKLLIYHDSQRPSRVPGRVSGSKSGTSASLAISRLQSDDEADYYCATWDDSLNGWVFGGGTKLTVLG
B2: huPrP-18 (scFv, V domains shown)
VH: QVQLVQSGAEVKKPGASVKVSCKASGYTFTSYPIHWVRQAPGQRLEWMGWLNPGTGVTKYSQNFQGRVTLTSDTSANTAYLELSSLRSEDTALYYCTRDPLDSRKNWFDPWGQGTLVTVSS
VL: SYVLTQPPSASGTPGQRVTISCSGSNSNIGTNFVYWYQQLPGTAPKLLIYRNNQRPSGVPDRFSGSKSGTSASLAISGLRSEDEADYYCAAWDDSLSGRVFGGGTQLTVLG
B3: boPrP-15 (scFv)
chain 1: QVQLVQSGAEVKKPGASVKVSCKASGYTFTSYGISWVRQAPGQGLEWMGWISAYNGNTNYAQKLQGRVTMTTDTSTSTAYMELRSLRSDDTAVYYCARYGGRIAAASYNWFDPWGQGTLAICPDSACLRVWVSWTVDHLVTVSS
chain 2: QSALTQPASVSGSPGQSITISCTGTSSDVGGYNYVSWYQQHPGKAPRLMIYDVSNRPSGVSNRFSGSKSGNTASLTISGLQSEDEADYYCSSYTSSSTLVFGTGTKLTVLG
B4: huPrP-39 (scFv, V domains shown)
VH: EVQLVQSGGGLVQPGRSLRLSCAASGFTFGDYAMSWVRQAPGKGPEWIATISSSGDILDYADSVRGRFSISRDNAQRSLHLQMTSLRPDDSAIYYCAREYFFSFDVWGRGTTVTVSS
VL: QSVLAQPPSLSVSPGQTARITCSGDGVGSGFVSWYQQRPGQSPSVVIYDDAKRPSGIPERFSGSNSGDTATLTISESRAVDEADYYCQTWDSRSPVFGGGTKVTVLG
B5: boPrP-2 (scFv, V domains shown)
VH: QVQLVQSGGGLVQPGRSLRLSCAASGFTFDDYAMHWVRQAPGKGLEWVSGISWNSGSIGYADSVKGRFTISRDNAKNSLYLQMNSLRAEDTALYYCAKGGGSYYYFDYWGQGTLVTVSS
VL: QSVLTQPPSVSGAPGQRVSISCTGNRSNIGAGYDVHWYQQVPGMAPKLLIYGNTKRPSGVPDRFSGSKSGTSASLAITGLQAEDEADYYCQSFDNTLSDSRWVFGGGTKLTVLG

These binders were tested against human α form prion (human, UniProt P04156 90-230).

| Binder | Kd |
| --- | --- |
| B1 | 36 nM |
| B2 | 20 nM |
| B3 | 7.8 nM |
| B4 | 33 nM |
| B5 | 110 nM |

Each binder was assayed against bovine α form prion (bovine, UniProt P10279 102-241).

| Binder | Kd |
| --- | --- |
| B2 | 60 nM |
| B3 | 4.6 nM |
| B4 | 29 nM |
| B5 | 410 nM |
